Experimental data taken from patent US20250369044.

Key:
[1] = system: C-MBP dimer (MBP variant with a cysteine on the third residue, disulfide-linked N-terminus to N-terminus homodimer)
[2] = system: MBP-1 (His-tagged Maltose Binding Protein with C-terminal leader: polyglycine stall, polyarginine capture, ssrA recognition motif)
[3] = system: MBP-C chemically tagged on its C-terminal cysteine with the maleimide Peptide-2 tag
[4] = system: mNG-HTH (mNG with a helix-turn-helix blocking domain and ssrA tag)
[5] = system: mNG-alpha_helix (mNG with an alpha-helical blocking domain and ssrA tag)
[6] = system: mNG-beta_hairpin (mNG with a hairpin blocking domain and ssrA tag)
[7] = system: {MBP}-{MBP-1}, genetic fusion protein of two MBP proteins (805 amino acids, 88 kDa)

E. coli ClpX, N-terminal truncated variant (residues 61-423)
nanopore read of the disulfide-linked dimer with ClpX and ATP in cis [1]: After reading the first monomer of C-MBP, the unfoldase was able to pass through the disulfide bond, after which it reads the second C-MBP monomer in the N- to C-terminus direction | ClpX controlled translocation with 1M KGlu in cis and 1 M KCl in trans [2]: ClpX controlled MBP-1 translocations were obtained from CytK 4D2E nanopores systems with 1M KGlu in the cis and 1 M KCl in trans | ClpX-controlled translocation of MBP-1 through the nanopore (ionic current) [2]: clear and consistent capture and subsequent ClpX-controlled translocation of MBP-1 was observed | rate of ClpX translocating along the polypeptide [2]: about 12-15 aa/second in these conditions | trans-to-cis ClpX controlled translocation (ionic current) [2]: characteristic ClpX controlled MBP-1 translocation events occurred trans-to-cis | translocation with 2.5 mM Gamma-S-ATP in place of ATP [2]: long blockades that never progressed to the changing current levels phase associated with ClpX translocase controlled movement of polypeptide that was observed under regular ATP conditions | ClpX controlled translocation of tagged MBP (ionic current) [3]: ClpX controlled MBP translocations (marked by arrows) are evident from the characteristic pattern of changing ionic current signals | fluorescence over time at 37° C. after adding ClpX and ATP [4]: no decrease in fluorescence | fluorescence over time at 37° C. after adding ClpX and ATP [5]: no decrease in fluorescence | fluorescence over time at 37° C. after adding ClpX and ATP [6]: no decrease in fluorescence | full length single-molecule reads with ClpX and ATP in cis [7]: full length reads of the protein were reliably obtained
